According to publication PMC7746861, “Acetate Metabolism in Archaea: Characterization of an Acetate Transporter and of Enzymes Involved in Acetate Activation and Gluconeogenesis in Haloferax volcanii” (Frontiers in Microbiology, 2020):
Read-outs that look alike come from different tables or passages of the source.

Assays:
[1] = biological target: Malic enzyme Mae1 from Haloferax volcanii, recombinant (Haloferax volcanii); assay: SEC; Superdex 200 HiLoad column (1.6 x 60 cm), flow rate 1 ml per min, calibrated with HMW and LMW kits (GE Healthcare); native mass compared with the subunit mass by SDS-PAGE; 50 mM Tris-HCl, pH 7.5, 1.5 M KCl
[2] = substrate: CC(=O)O; assay: purified protein; settings: acetate activation, ATP, CoA
[3] = substrate: CC(C)(COP(=O)(O)OP(=O)(O)OC[C@H]1O[C@@H](n2cnc3c(N)ncnc32)[C@H](O)[C@@H]1OP(=O)(O)O)[C@@H](O)C(=O)NCCC(=O)NCCS; assay: purified protein; type: biochemical, Haloferax volcanii; settings: acetate activation, ATP, CoA
[4] = substrate: Nc1ncnc2c1ncn2[C@@H]1O[C@H](COP(=O)(O)OP(=O)(O)OP(=O)(O)O)[C@@H](O)[C@H]1O; assay: purified protein; type: biochemical, Haloferax volcanii; settings: acetate activation, ATP, CoA
[5] = biological target: the molecule itself; assay: SEC; Superdex 200 HiLoad column (1.6 x 60 cm), flow rate 1 ml per min, calibrated with HMW and LMW kits (GE Healthcare); native mass compared with the subunit mass by SDS-PAGE; 50 mM Tris-HCl, pH 7.5, 1.5 M KCl
[6] = biological target: the molecule itself; assay: as above; remark: listed apart in the source
[7] = substrate: O=C(O)C[C@H](O)C(=O)O; assay: purified protein; settings: NADP+, MnCl2, 4 M KCl, pH 5.75, 42°C, pH 5.75
[8] = substrate: NC(=O)C1=CN([C@@H]2O[C@H](COP(=O)(O)OP(=O)(O)OC[C@H]3O[C@@H](n4cnc5c(N)ncnc54)[C@H](OP(=O)(O)O)[C@@H]3O)[C@@H](O)[C@H]2O)C=CC1; assay: purified protein; type: biochemical, Haloferax volcanii; settings: reverse reaction, pyruvate, NaHCO3, MnCl2, 4 M KCl, pH 5.75, 42°C, varied: cofactor
[9] = substrate: NC(=O)c1ccc[n+]([C@@H]2O[C@H](COP(=O)(O)OP(=O)(O)OC[C@H]3O[C@@H](n4cnc5c(N)ncnc54)[C@H](OP(=O)(O)O)[C@@H]3O)[C@@H](O)[C@H]2O)c1; assay: purified protein; type: biochemical, Haloferax volcanii; settings: varied: cofactor
[10] = substrate: CC(=O)SCCNC(=O)CCNC(=O)[C@H](O)C(C)(C)COP(=O)(O)OP(=O)(O)OC[C@H]1O[C@@H](n2cnc3c(N)ncnc32)[C@H](O)[C@@H]1OP(=O)(O)O; assay: purified protein; type: biochemical, Haloferax volcanii; settings: acetate formation (reverse), AMP, PPi, MgCl2, 2 M KCl, pH 7.0, 42°C
[11] = substrate: NC(=O)c1ccc[n+]([C@@H]2O[C@H](COP(=O)(O)OP(=O)(O)OC[C@H]3O[C@@H](n4cnc5c(N)ncnc54)[C@H](O)[C@@H]3O)[C@@H](O)[C@H]2O)c1; assay: purified protein; type: biochemical, Haloferax volcanii; settings: 10 mM malate, MnCl2, […] KCl, pH 7.0, 42°C, varied: cofactor
[12] = recombinant, MgCl2, 2 M KCl, pH 7.5, 42°C, pH 7.5
[13] = recombinant, MgCl2, 2 M KCl, pH 7.5, 42°C
[14] = MgCl2, 1 M KCl, pH 7.0, 42°C, pH 7.0

## Malic enzyme Mae1 from Haloferax volcanii, recombinant
[1]
  stoichiometry N: 8

B1: ACS2 (Haloferax volcanii DS2) (protein)
chain: MKKPLLVTEFLDRARRYYGDEEAVVATTGERFTYDELGERADGFSAALQSRGVEKGDRVAVLDPNTHYHLEAAYGSMQLGAVHMPLNYRLVPADFEYVLNDADVTAVYADYAFAEKIDAVRDEIPAEIFVTNDPEKAAESTDGEWLDFDELVAESTDYERPEMDEDDIITINYTSGTTGDPKGVCRTHRAETIHAYLISMHQDIGDDDVYLWTLPMFHVNGWGHIYAITGHGAKHVCTRGVEAEAVLDAIRDEDVSYLCAAPTVLNILMKHYREEGGVETTGASPVRAATAGAAPPEATIRTVEDEFGWRLMHVYGATETGPLITTSEAGRYLTDGDDRFGVKKKQGIGYLGTDVRVVDEDGTDVPRDEQSVGEIVVTGNQVMEKYWNKPEETEEAFSARLEGYYHMGDLAVVDENGFISIQDRKKDIIISGGENISSIELEDTLFDHDEVADVAVIPVPSDEWGESPKAFVVPTSGDPDAPGVTAEALIAFCRERIATYKVPKEVEFVTELPKTATGKVQKYELREREWEDEGRMMGEG
notes: full length, Ni-NTA purified (pTA963), homologous expression in H. volcanii
[2]; [12]
  Km: 1500 µM
  Vmax: 1.5 µmol/min/mg
[3]; [13]
  Km: 2210 µM
[4]; [13]
  Km: 430 µM

B2: AMP-forming acetyl-CoA synthetase ACS2 from Haloferax volcanii, recombinant (enzyme, UniProt D4GUW5 1-540, looked up)
chain: B1 chain
notes: AMP-forming acetyl-CoA synthetase ACS2 of Haloferax volcanii, gene acs2, locus tag HVO_0896; calculated subunit 59.8 kDa; gene amplified from genomic DNA; also called recombinant ACS2; HVO_0896; source: H. volcanii H1209 (plasmid pTA963, homologous overexpression), purified (Ni-NTA, size exclusion chromatography)
[5]
  stoichiometry N: 2

B3: AMP-forming acetyl-CoA synthetase ACS2 purified from acetate-grown Haloferax volcanii cells (enzyme, UniProt D4GUW5 1-540, looked up)
chain: B1 chain
notes: AMP-forming acetyl-CoA synthetase ACS2 of Haloferax volcanii, gene acs2, locus tag HVO_0896; identified by MALDI-TOF MS of the 69 kDa subunit; Native enzyme, no tag; also called HVO_0896
[6]
  stoichiometry N: 2

B4: AMP-forming acetyl-CoA synthetase ACS9 from Haloferax volcanii, recombinant (enzyme, UniProt D4GRL3 1-538, looked up)
chain: MKKQLLVTDFLDRARTYYGDYEAVVGVDGERFTYAEFGERVDRFSAALQSRGVEKGDRVAVLDPNTHYHLEAAFGAMQCGALHVPLNYRLTTDDYEYLLSDSGATVVYADYQYAGKIEAVRDDVPAEVFVTNDPAAVDGDWLDFEAFLDEADADDYERPEMSEDELITINYTSGTTGDPKGVCRTHRTESLHAQLVTIHHHIGDDDVYLWTLPMFHVNGWGHIYAVTGRGAKHVCTRGVEAEAVFDAITEEDVSFFCCAPTVLSILREYAEEHDPAYAGDNPVRVTAAGSAAPSATIRHTESEFGWEFTQLYGATETGPLIATSDANRLIPDEGGLRFSLKQRQGVAPLGTDLRVVDDDGEQVPRGDATIGEVVVRGNQVMEKYWNKPDETHDAFNDRLEGWYHTGDLAVVNEDGMIAIQDRKKDIIISGGENISSVELEDALFDHDAVGDVAVIPAPSEKWGETPKAFVVPANGDVENPGVTAEELTAYTRDRLAGYKAIREFEFVAEIPKTATGKIQKYELRKREWDDEERMVGQG
notes: 59 kDa subunits; gene amplified from genomic DNA; source: H. volcanii H1209 (plasmid pTA963, homologous overexpression), purified (Ni-NTA, Superdex 200)
[6]
  stoichiometry N: 2

B5: Mae1 (Haloferax volcanii DS2) (protein)
chain: MGLDDDSRKYHRQDPPGKIEIATTKPTNTQRDLSLAYSPGVAAPCLDIAEDEDAAYEYTAKGNLVGVVSNGSAVLGLGDIGAQASKPVMEGKGVLFKRFADIDVFDVELDIADVDDFVAATKAMEPTFGGINLEDIKAPECFEIERQLREQMDIPVFHDDQHGTAIISGAALLNAADIVDKDLDELDIVFSGAGASALATARFYVSLGAKKENITMCDSSGIITESRVEDGDVNKYKAEFAKPVDEGSLSDAMEGADVLAGLSVGGIVSQEMVRSMADNPVIFAMANPDPEITYEDAKDARDDTVIMATGRSDYPNQVNNVLGFPFIFRGALDVRATEINEAMKRAAAEALAELARQDVPDAVVKAYGDHPLQFGADYVIPKPLDPRVLFEVAPAVAQAAMTSGAARERLDMNAYREELEARLGKSREMMRVVLNKAKSNPKRVALAEGEDEKMIRAAYQMQEEGIAEPILVGETTTILRKAEELGLDFDPTIANPRDGEWDHYVDRLYELRQRKGVTNSEAEELVRRDSNYFASVMVEVGDADAMLTGLTHHYPSALRPPLQIIGTADDADYAAGVYMMTFKNRVVFCADTTVNLDPDEEVLAEITKHTADLARQFNVEPRAALLSYSNFGSVTNEGTRKPRDAAALLQDDPEVDFPVDGEMQADTALVEDILEGTYDFAELDGPANVLVFPNLEAGNIGYKLLQRLGGAEAIGPMLVGMDKPVHVLQRGDEVKDIVNLAATAVVDAQEE
notes: full length with C-terminal PTA domain, Ni-NTA purified, homologous expression in H. volcanii
[7]
  Km: 650 µM
[8]
  Km: 100 µM
[9]; L-malate, MnCl2, 4 M KCl, pH 5.75, 42°C
  Km: 60 µM

B6: AMP-forming acetyl-CoA synthetase ACS1 from Haloferax volcanii, recombinant (enzyme, UniProt D4GUW1 1-662, looked up)
chain: MADGDTELEARLVEQEEFEPSEEFVAQANVSDPAVYDEFEENWPDCWERAAEMLDWDEKYDEVLDDSNPPFYEWFTGGKLNVSYNCVDRHVENGDKNRVAIKWEGEHGETRTYTYQDLYREVNEFAAALRDLGVEEDDVVTLYMPMIPELPIAMLACARIGAPHSVVFGGFSAEALATRMNAADSRFLVTCDGYYRRGDPLDHLDKANEGLDGVDHGVDATVVVDRLGDDGFDHDLKGNQHDWDDLLDEHAGERIDPVERDAEDMLFLMYTSGTTGQPKGVKHTTGGYLAYAAWTSHAVLDIEKEDTYWCSADIGWITGHSYIVYGPLALGTTTVMYEGTPDFPNRDRLWDIIEKYAVDIFYTAPTAIRAFMKWGSRFPEQHDLSSLRLLGTVGEPINPRAWKWYYKHIGNEDCPVVDTWWQTETGGMMITTLPGIKKMKPGSAGPPLPGIDAQIVDTSGKQVDAGRAGYLTVNKPWPGMLRTLYKNDERFIQEYWQEYSDTDSDDPDDWVYFPEDGAKIDGDDYITILGRVDDVINVSGHRLGTMEIESAIVGVEGVAEAAVVGGNHEVKGEAVYAYVITEEGQDEDDEMRGRIIEGVEDAIGPIARPEMVVFTPELPKTRSGKIMRRLLEEIANGEELGDTTTLRNPEVVESIQRQVESE
notes: AMP-forming acetyl-CoA synthetase ACS1 of Haloferax volcanii, gene acs1, locus tag HVO_0894; calculated subunit 71.2 kDa; gene amplified from genomic DNA; also called HVO_0894; source: H. volcanii H1209 (plasmid pTA963, homologous overexpression), purified (Ni-NTA, Superdex 200)
[2]; [14]
  Km: 90 µM
  Vmax: 0.4 µmol/min/mg
[10]
  Km: 570 µM
  Vmax: 0.25 µmol/min/mg
[3]; MgCl2, 1 M KCl, pH 7.0, 42°C
  Km: 730 µM
[4]; MgCl2, 1 M KCl, pH 7.0, 42°C
  Km: 480 µM
[5]
  stoichiometry N: 2

B7: Mae2 (Haloferax volcanii DS2) (protein)
chain: MTLGDDARDYHRRPPAGKVEIATTKPTNTQRDLSLAYSPGVAAPCRDIAEDENAAYEYTAKGNLVGVVSNGSAVLGLGDIGAQASKPVMEGKGVLFKRFADIDVFDVEFDHDDPQAFVESVAAMEPTFGGINLEDIRAPECFEIEESLRERMDIPVFHDDQHGTAIISGAALLNAADIADKELSSLNVTFSGAGAAATATARFYVSLGIPHENITLCDIDGVLSESRAEAGELDEYAEPFARGVDDGDLEDAMEGADVLVGLSVGGIVSQETVRSMADDPIIFAMANPEPEIAYEDAKEARDDTVIMATGRSDYPNQVNNVLGFPFIFRGALDVRATEINEEMKRAAAEALANLARQDVPDAVVKAYGDGPLQFGPDYLIPKPLDQRVLYEVTPAVAEAAMKSGAARRERDLDDYREELEARLGKSREMMRVVLNKAASNPKRVVLAEGEDEKMIRAASQLVEEGIAEPILVGRTKEILRTAEDLGLDFDPTIADPESGEWNHYVDHLYERRQRKGLTRTEAAELVRGDSNYFASVMVEVGDADAMLTGLTHHYPSALRPPLQIIGTADDADYAAGVYMLTFRNRVIFCADATVNLDPDENVLAEVTKHTAELARRFNVEPRAALLSYSDFGSVTNEGTRKPRNAVEQLHADPDVDFPVDGEMQADTALVEEMLTDTYDFAELDDPANVLVFPNLEAGNIGYKLLQRLGGAEAIGPMLVGMDKPVHVLQRGDEVKDIVNLAGVAVVDAQSE
notes: full length with C-terminal PTA domain, Ni-NTA purified, homologous expression in H. volcanii; 530 kDa, subunit 81 kDa
[11]
  Km: 150 µM
[9]; 10 mM malate, MnCl2, […] KCl, pH 7.0, 42°C
  Km: 100 µM
